Test results as given in article PMC9712121 (Nature, 2022).

Molecular target: the molecule itself
Assay: negative-stain EM; TNKS2 SAM at 104 μM on carbon, 2% uranyl acetate; 3D refinement with D1 symmetry, projections compared with the SAM–PARP model and PDB 5JRT

B1: TNKS2 SAM (867–940), wild type (domain or fragment, human, UniProt Q9H2K2 867-940, looked up)
chain: EKKEVPGVDFSITQFVRNLGLEHLMDIFEREQITLDVLVEMGHKELKEIGINAYGHRHKLIKGVERLISGQQGL
notes: Tankyrase 2 (TNKS2), human, SAM domain, residues 867-940; also called SAM domain
Does B1 bind?
Result: binds
